Test results from PMC6497155 (ACS infectious diseases, 2018).

Assays:
ClpP2 = experiment: Proteolytic activity of ClpP2 with DTT; assay type: biochemical, C. difficile; conditions: varying concentrations of DTT; incubation times exceeding 48 h
[1] = Storage stability and concentration limit of purified ClpP; assay type: physicochemical; conditions: purified protein in activity buffer
ClpX = conditions: 200 nM ClpP, 50 nM ClpX; relative to ClpX alone
[2] = Thermal stability of ClpP homotetradecamers; assay type: physicochemical

Molecule | Stimulation of ClpP2 proteolytic activity by DTT (ClpP2) | Concentration reached without any sign of precipitation [1] | Rate reduction of ClpX ATP hydrolysis (ClpX) | Concentration above which less stability is exhibited [1] | Tm ([2]; no ADEP, SYPRO Orange, activity buffer (25 mM HEPES, 100 mM KCl, 5 mM MgCl2, 1 mM DTT, 10% glycerol), 25 to 85 °C in 0.3 °C increments, triplicate, Boltzmann fit) [°C] | Effect of reduced conditions on thermal stability ([2]; reduced conditions)
O[C@@H](CS)[C@@H](O)CS (racemic) [dithiothreitol (DTT), dithiothreitol] | failed to stimulate proteolytic activity |  |  |  |  | 
ClpP1: recombinant C. difficile ClpP1 (YP_001089821.1), homotetradecamer, prepared from ΔEcClpP E. coli unless otherwise noted |  | ~ 60 mg/mL | ~ 18% |  |  | 
ClpP2: recombinant C. difficile ClpP2 (YP_001089868.1), homotetradecamer |  |  | ~ 7% | exceeding 12.5 mg/mL | 46.5 | no significant effect on the thermal stability
